We go through 5 sequences from the supplement of paper PMC11196671.

A short description of this series: MHET released, HPLC; higher = more MHET released; extreme values may be limits of the assay. The settings on record: 24 h. On the procedure:
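Purified PET hydrolases, 2.5 ug enzyme on 3.5 mg amorphous PET film (aFilm) or crystalline PET powder (cryPow) in 0.5 mL of 50 mM buffer (NaCitrate pH 4.5/5.5, NaPhosphate 6.5/7.5, glycine 8.5/9.5) at 60 or 70 C with shaking for 24 h. Total aromatic product by UV-Vis (260/280 nm, blank-subtracted, normalised per mg enzyme) and individual TPA, MHET, BHET concentrations by UHPLC-DAD at 240 nm; duplicate reactions.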

Setting [1] is: PET substrate: aFilm, 60 °C, pH 4.5.
Where [2] appears, read: PET substrate: aFilm, 60 °C, pH 5.5.
The mark [3] stands for this setting: PET substrate: aFilm, 60 °C, pH 6.5.
Setting [4] is: PET substrate: aFilm, 60 °C, pH 7.5.
Setting [5] is: PET substrate: aFilm, 60 °C, pH 8.5.
Where [6] appears, read: PET substrate: aFilm, 60 °C, pH 9.5.
Setting [7] is: PET substrate: aFilm, 70 °C, pH 4.5.
Where [8] appears, read: PET substrate: aFilm, 70 °C, pH 5.5.
Setting [9] is: PET substrate: aFilm, 70 °C, pH 6.5.
The mark [10] stands for this setting: PET substrate: aFilm, 70 °C, pH 7.5.
Setting [11] is: PET substrate: aFilm, 70 °C, pH 8.5.
Where [12] appears, read: PET substrate: aFilm, 70 °C, pH 9.5.
[13] abbreviates: PET substrate: cryPow, 60 °C, pH 4.5.
[14] abbreviates: PET substrate: cryPow, 60 °C, pH 5.5.
Where [15] appears, read: PET substrate: cryPow, 60 °C, pH 6.5.
Setting [16] is: PET substrate: cryPow, 60 °C, pH 7.5.
Setting [17] is: PET substrate: cryPow, 60 °C, pH 8.5.
Setting [18] is: PET substrate: cryPow, 60 °C, pH 9.5.
Setting [19] is: PET substrate: cryPow, 70 °C, pH 4.5.
The mark [20] stands for this setting: PET substrate: cryPow, 70 °C, pH 5.5.
Where [21] appears, read: PET substrate: cryPow, 70 °C, pH 6.5.
Where [22] appears, read: PET substrate: cryPow, 70 °C, pH 7.5.
Where [23] appears, read: PET substrate: cryPow, 70 °C, pH 8.5.
Where [24] appears, read: PET substrate: cryPow, 70 °C, pH 9.5.

± gives the standard deviation of the averaged measurements.

Take “ANPYERGPNPTDALLEARSGPFSVSEENVSRLSASGFGGGTIYYPRENNTYGAVAISPGYTGTEASIAWLGERIASHGFVVITIDTITTLDQPDSRAEQLNAALNHMINRASSTVRSRIDSSRLAVMGHSMGGGGSLRLASQRPDLKAAIPLTPWHLNKNWSSVTVPTLIIGADLDTIAPVATHAKPFYNSLPSSISKAYLELDGATHFAPNIPNKIIGKYSVAWLKRFVDNDTRYTQFLCPGPRDGLFGEVEEYRSTCPF [TfCut2]”: the MHET released runs as follows: under setting [1], 0 mM; under setting [2], 0.0544 ± 0.017 mM; under setting [3], 0.0658 ± 0.012 mM; under setting [4], 0.213 ± 0.06 mM; under setting [5], 0.105 ± 0.011 mM; under setting [6], 0.143 ± 0.016 mM. Also, the MHET released under setting [7] amounted to 0 mM; the MHET released under setting [8] is 0.00251 ± 0.0036 mM; the MHET released under setting [9] worked out at 0.00766 ± 0.0026 mM; the MHET released under setting [10] was found to be 0 mM; the MHET released under setting [11] came out at 0.0146 ± 0.00012 mM; the MHET released under setting [12] was 0 mM. Further, the MHET released by setting is: under setting [13], 0 mM; under setting [14], 0.0126 ± 0.0025 mM; under setting [15], 0.0226 ± 0.012 mM; under setting [16], 0.104 ± 0.087 mM; under setting [17], 0.0471 ± 0.011 mM; under setting [18], 0.0249 ± 0.026 mM. Further, the MHET released reads like this: under setting [19], 0 mM; under setting [20], 0 mM; under setting [21], 0 mM; under setting [22], 0 mM; under setting [23], 0.00527 ± 0.00037 mM; under setting [24], 0 mM.
“SNPYQRGPNPTRSALTADGPFSVATYTVSRLSVSGFGGGVIYYPTGTSLTFGGIAMSPGYTADASSLAWLGRRLASHGFVVLVINTNSRFDGPDSRASQLSAALNYLRTSSPSAVRARLDANRLAVAGHSMGGGGTLRIAEQNPSLKAAVPLTPWHTDKTFNTSVPVLIVGAEADTVAPVSQHAIPFYQNLPSTTPKVYVELCNASHIAPNSNNAAISVYTISWMKLWVDNDTRYRQFLCNVNDPALCDFRTNNRHCQ [LCC-ICCG]”: the MHET released turned out to be 0.00708 ± 0.0059 mM under setting [1]; 0.284 ± 0.091 mM under setting [2]; 0.773 ± 0.12 mM under setting [3]; 3.92 ± 0.6 mM under setting [4]; 0.271 ± 0.022 mM under setting [5]; 2.19 ± 0.54 mM under setting [6]. Besides, the MHET released by setting is: under setting [7], 0 mM; under setting [8], 0.246 ± 0.074 mM; under setting [9], 0.356 ± 0.058 mM; under setting [10], 4.35 ± 0.78 mM; under setting [11], 0.221 ± 0.029 mM; under setting [12], 1.87 ± 0.22 mM. Moreover, the MHET released reads like this: under setting [13], 0.0148 ± 0.003 mM; under setting [14], 0.203 ± 0.042 mM; under setting [15], 0.27 ± 0.044 mM; under setting [16], 0.507 ± 0.12 mM; under setting [17], 0.198 ± 0.012 mM; under setting [18], 0.165 ± 0.054 mM. Besides, the MHET released runs as follows: under setting [19], 0 mM; under setting [20], 0.1 ± 0.025 mM; under setting [21], 0.208 ± 0.052 mM; under setting [22], 0.433 ± 0.038 mM; under setting [23], 0.173 ± 0.029 mM; under setting [24], 0.1 ± 0.021 mM.
In the case of “SNPYQRGPNPTRSALTADGPFSVRTYTISRLSVSGFGGGVIYYPTGTSLTFGGIAMSPGYTADASSLAWLGRRLASHGFVVLVINTNSRFDGPDSRASQLSAALNYLRTSSPSAVRARLDANRLAVAGHSMGGGGTLRIAEQNPSLKAAVPLTPWHTDKTFNTSVPVLIVGAEADTVAPVSQHAIPFYQNLPSTTPKVYVELCNASHIAPNSPNAAISVYTISWMKLWVDNDTRYRQFLCNVNDPALCDFRTNNRHCQ [LCC-ICCG RIP]”, the MHET released under setting [1] was determined as 0.0627 ± 0.036 mM; the MHET released under setting [2] was determined as 0.19 ± 0.029 mM; the MHET released under setting [3] was found to be 0.477 ± 0.12 mM; the MHET released under setting [4] came to 1.93 ± 0.73 mM; the MHET released under setting [5] turned out to be 0.309 ± 0.017 mM; the MHET released under setting [6] was found to be 1.34 ± 0.86 mM. Further, the MHET released by setting is: under setting [7], 0.00485 ± 0.0069 mM; under setting [8], 0.23 ± 0.039 mM; under setting [9], 0.352 ± 0.0081 mM; under setting [10], 2.36 ± 0.12 mM; under setting [11], 0.217 ± 0.02 mM; under setting [12], 0.896 ± 0.27 mM. In addition, the MHET released by setting is: under setting [13], 0.0685 ± 0.0031 mM; under setting [14], 0.1986 ± 0.00074 mM; under setting [15], 0.257 ± 0.023 mM; under setting [16], 0.292 ± 0.032 mM; under setting [17], 0.186 ± 0.073 mM; under setting [18], 0.0905 ± 0.035 mM. In addition, the MHET released is, setting by setting: under setting [19], 0.0111 ± 0.0025 mM; under setting [20], 0.10965 ± 4.2e-05 mM; under setting [21], 0.2013 ± 0.0014 mM; under setting [22], 0.367 ± 0.066 mM; under setting [23], 0.164 ± 0.013 mM; under setting [24], 0.0678 ± 0.0021 mM.
“ADNPYQRGPDPTNASIEAATGPFAVGTQPIVGASGFGGGQIYYPTDTSQTYGAVVIVPGFISVWAQLAWLGPRLASQGFVVIGIETSTITDLPDPRGDQALAALDWATTRSPVRSRIDRTRLAAAGWSMGGGGLRRAACQRPSLKAIVGMAPWNTEKNWSCVTVPTLFFGGSSDAVASPNDHAKPFYNSITRAEKDYIELCNADHFFPTSANTTMAKYFISWLKRWVDNDTRYTQFLCPGPSTGLFAPVCASMNTCPF [CaPETaseM9]”: the MHET released by setting is: under setting [1], 0.00378 ± 0.0053 mM; under setting [2], 0.0574 ± 0.036 mM; under setting [3], 0.106 ± 0.025 mM; under setting [4], 0.299 ± 0.047 mM; under setting [5], 0.108 ± 0.011 mM; under setting [6], 0.123 ± 0.038 mM. Further, the MHET released by setting is: under setting [7], 0 mM; under setting [8], 0 mM; under setting [9], 0 mM; under setting [10], 0 mM; under setting [11], 0.00345 ± 0.0049 mM; under setting [12], 0 mM. Further, the MHET released worked out at 0.03643 ± 0.0002 mM under setting [13]; 0.0852 ± 0.0034 mM under setting [14]; 0.103 ± 0.011 mM under setting [15]; 0.183 ± 0.023 mM under setting [16]; 0.0922 ± 0.01 mM under setting [17]; 0.0663 ± 0.032 mM under setting [18]. The MHET released by setting is: under setting [19], 0 mM; under setting [20], 0.0148 ± 0.0041 mM; under setting [21], 0.0346 ± 0.009 mM; under setting [22], 0.0406 ± 0.0068 mM; under setting [23], 0.0381 ± 0.003 mM; under setting [24], 0 mM.
With “QTNPYARGPDPTAASLEASAGPFTVRSFTVSRPSGYGAGTVYYPTNAGGTVGAIAIVPGYTARQSSIKWWGPRLASHGFVVITIDTNSTLDQPESRSSQQMAALEQVASLNGTSSSPIYGKVDTARMGVMGWSMGGGGSLISACNNPSLKAAVVQAPWHSSTNFSCVTVPTLIFACENDSIAPVNSSALPIYDSMSENAKQFLEICGGSHSCANTGNSDQALIGKKGVAWMKRFMDNDTRYSTFACENPNSTRVCDFRTANCS [Z1-PETase]”, the MHET released reads like this: under setting [1], 0 mM; under setting [2], 0 mM; under setting [3], 0.321 ± 0.11 mM; under setting [4], 1.88 ± 0.9 mM; under setting [5], 0.249 ± 0.026 mM; under setting [6], 1.03 ± 0.33 mM. Moreover, the MHET released worked out at 0 mM under setting [7]; 0 mM under setting [8]; 0 mM under setting [9]; 0.0119 ± 0.017 mM under setting [10]; 0.00565 ± 0.008 mM under setting [11]; 0 mM under setting [12]. The MHET released is, setting by setting: under setting [13], 0 mM; under setting [14], 0.053 ± 0.043 mM; under setting [15], 0.476 ± 0.032 mM; under setting [16], 0.522 ± 0.033 mM; under setting [17], 0.343 ± 0.099 mM; under setting [18], 0.071 ± 0.022 mM. For the same sequence, the MHET released reads like this: under setting [19], 0 mM; under setting [20], 0 mM; under setting [21], 0.125 ± 0.011 mM; under setting [22], 0.181 ± 0.033 mM; under setting [23], 0.123 ± 0.0094 mM; under setting [24], 0.0142 ± 0.0083 mM.
